Measured values taken from paper PMC5450713 (Toxins, 2017).

How the values were obtained:
[1] = target: trypsin-treated Vip3Ag4 (complex of the ~65 kDa and ~21 kDa products of proteolysis) (Bacillus thuringiensis) (UniProt I6LPV9); assay: SEC; SEC of trypsin-treated recombinant Vip3Ag4 compared with unprocessed material; fractions of the major peak analysed by SDS PAGE
[2] = target: the molecule itself; assay: SEC; Hi-Prep 16/60 Sephacryl S-300, 20 mM TrisHCl pH 8.0, 300 mM NaCl, 0.5 mL/min, calibrated with gel filtration standards; initial Vip3Ag4 preparation after nickel affinity
[3] = target: the molecule itself; assay: SEC-MALS; Superdex 200 10/300 Increase, 100 uL at 1.0 mg/mL, 20 mM TrisHCl, 300 mM NaCl, pH 8.0, 0.7 mL/min

Molecule: trypsin-treated Vip3Ag4 (complex of the ~65 kDa and ~21 kDa products of proteolysis) (from UniProt I6LPV9 1-182; I6LPV9 199-787)
- stoichiometry N [1]: 4

B1: recombinant His-tagged Vip3Ag4 protein (natural protein, Bacillus thuringiensis, UniProt I6LPV9 1-787, looked up)
chain: MNKNNTKLNARALPSFIDYFNGIYGFATGIKDIMNMIFKTDTGGNLTLDEILKNQQLLNEISGKLDGVNGSLNDLIAQGNLNTELSKEILKIANEQNQVLNDVNNKLNAINTMLHIYLPKITSMLNDVMKQNYALSLQIEYLSKQLQEISDKLDVINVNVLINSTLTEITPAYQRMKYVNEKFEDLTFATETTLKVKKNSSPADILDELTELTELAKSVTKNDVDGFEFYLNTFHDVMVGNNLFGRSALKTASELIAKENVKTSGSEVGNVYNFLIVLTALQAKAFLTLTTCRKLLGLADIDYTFIMNEHLDKEKEEFRVNILPTLSNTFSNPNYAKAKGSNEDAKIIVEAKPGYALVGFEMSNDSITVLKAYQAKLKQDYQVDKDSLSEIVYGDMDKLLCPDQSEQIYYTNNIAFPNEYVITKITFTKKMNSLRYEATANFYDSSTGDIDLNKTKVESSEAEYSTLSASTDGVYMPLGIISETFLTPINGFGIVVDENSKLVNLTCKSYLREVLLATDLSNKETKLIVPPIGFISNIVENGNLEGENLEPWKANNKNAYVDHTGGVNGTKALYVHKDGEFSQFIGDKLKSKTEYVIQYIVKGKASILLKDEKNGDCIYEDTNNGLEDFQTITKSFITGTDSSGVHLIFNSQNGDEAFGENFTISEIRLSEDLLSPELINSDAWVGSQGTWISGNSLTINSNVNGTFRQNLSLESYSTYSMNFNVNGFAKVTVRNSREVLFEKNYPQLSPKDISEKFTTAANNTGLYVELSRFTSGGAINFRNFSIK
notes: Expected size with His-tag 91.38 kDa; also called Vip3Ag4 protoxin; unprocessed Vip3Ag4; source: E. coli BL21(DE3), pET28b, purified (Protino Ni-TED column, Sephacryl S-300 size exclusion); not shown: His tag, N-terminal, kept
- stoichiometry N [2]: ~4
- stoichiometry N [3]: 4
